± gives the uncertainty stated by the source.
B1: E3 ubiquitin-protein ligase NEDD4, residues 836 to 881; numbered along this chain, P46934 (parent)
chain: EIEQGFLPKGWEVRHAPNGRPFFIDHNTKTTTWEDPRLKIPAHLRG

Variants of: B1
Test: abundance fitness (aPCA) (normalised: wild type 0, dead -1); higher = more abundant; growth selection in yeast, the domain comes from the species named
Details: Homo sapiens
N18C gave an abundance fitness of -0.256 ± 0.093.
In the case of N18R, the abundance fitness is reported as -0.805 ± 0.11.
For N18A, the abundance fitness was -0.69 ± 0.091.
N18Q gave an abundance fitness of -1.06 ± 0.34.
In the case of N18E, the abundance fitness is reported as -0.232 ± 0.064.
For N18L, the abundance fitness was -0.696 ± 0.087.
N18G gave an abundance fitness of -0.063 ± 0.034.
Variant I2W has an abundance fitness of -0.271 ± 0.1.
Work on I2A yielded an abundance fitness of -0.152 ± 0.05.
In the case of I2R, the abundance fitness is reported as -0.141 ± 0.031.
I2K showed an abundance fitness of -0.012 ± 0.082.
I2T showed an abundance fitness of -0.214 ± 0.099.
I2Q gave an abundance fitness of 0.178 ± 0.11.
For I2Y, the abundance fitness was -0.326 ± 0.14.
I2V showed an abundance fitness of -0.334 ± 0.064.
I2M gave an abundance fitness of -0.044 ± 0.074.
For I2E, the abundance fitness was -0.037 ± 0.094.
Work on I2P yielded an abundance fitness of -0.953 ± 0.16.
In the case of I2C, the abundance fitness is reported as -0.217 ± 0.094.
For I2S, the abundance fitness was -0.166 ± 0.067.
I2D gave an abundance fitness of 0.035 ± 0.089.
Work on I2L yielded an abundance fitness of 0.11 ± 0.064.
I2H gave an abundance fitness of -0.326 ± 0.16.
For I2F, the abundance fitness was -0.129 ± 0.095.
Variant E1D has an abundance fitness of -0.219 ± 0.14.
For E1K, the abundance fitness was -0.095 ± 0.48.
Variant E1N has an abundance fitness of 0.381 ± 0.29.
Variant E1V has an abundance fitness of -0.153 ± 0.076.
With E1R the abundance fitness was -0.07 ± 0.2.
E1T gave an abundance fitness of 0.091 ± 0.12.
Variant E1Y has an abundance fitness of 0.202 ± 0.45.
Work on E1G yielded an abundance fitness of -0.27 ± 0.046.
E1A gave an abundance fitness of -0.259 ± 0.12.
In the case of A16P, the abundance fitness is reported as -0.416 ± 0.14.
For A16N, the abundance fitness was -0.435 ± 0.22.
Variant A16R has an abundance fitness of -0.668 ± 0.099.
In the case of A16K, the abundance fitness is reported as -0.698 ± 0.23.
In the case of A16L, the abundance fitness is reported as -0.345 ± 0.1.
Variant A16M has an abundance fitness of -0.216 ± 0.11.
Variant A16Q has an abundance fitness of -0.353 ± 0.069.
A16E showed an abundance fitness of -0.387 ± 0.064.
A16V gave an abundance fitness of -0.505 ± 0.066.
A16T gave an abundance fitness of 0.127 ± 0.079.
Variant A16G has an abundance fitness of -0.108 ± 0.05.
A16C showed an abundance fitness of -0.11 ± 0.081.
For A16I, the abundance fitness was -0.193 ± 0.23.
A16Y showed an abundance fitness of -0.657 ± 0.2.
In the case of H15E, the abundance fitness is reported as -0.116 ± 0.072.
H15A gave an abundance fitness of -0.095 ± 0.079.
For H15M, the abundance fitness was -0.34 ± 0.084.
Variant H15D has an abundance fitness of -0.031 ± 0.092.
H15L showed an abundance fitness of -0.013 ± 0.033.
With H15F the abundance fitness was -0.074 ± 0.087.
With H15K the abundance fitness was 0.081 ± 0.064.
Work on H15T yielded an abundance fitness of -0.047 ± 0.042.
In the case of H15R, the abundance fitness is reported as -0.004 ± 0.033.
H15C gave an abundance fitness of 0.166 ± 0.064.
In the case of H15W, the abundance fitness is reported as -0.133 ± 0.049.
With H15Q the abundance fitness was -0.257 ± 0.098.
In the case of H15Y, the abundance fitness is reported as -0.147 ± 0.071.
Variant H15N has an abundance fitness of -0.113 ± 0.037.
Variant H15G has an abundance fitness of -0.508 ± 0.065.
For H15I, the abundance fitness was -0.051 ± 0.081.
Variant H15P has an abundance fitness of -0.507 ± 0.083.
In the case of V13F, the abundance fitness is reported as -0.159 ± 0.084.
Variant V13W has an abundance fitness of -0.842 ± 0.12.
V13Q showed an abundance fitness of -0.135 ± 0.058.
V13T showed an abundance fitness of -0.529 ± 0.09.
In the case of V13N, the abundance fitness is reported as -0.836 ± 0.23.
Variant V13L has an abundance fitness of -0.122 ± 0.03.
With V13S the abundance fitness was -0.399 ± 0.048.
V13R showed an abundance fitness of -0.149 ± 0.034.
V13G showed an abundance fitness of -0.747 ± 0.07.
Work on V13Y yielded an abundance fitness of -0.799 ± 0.2.
With V13C the abundance fitness was -0.252 ± 0.052.
V13E gave an abundance fitness of 0.069 ± 0.062.
Work on V13H yielded an abundance fitness of -0.724 ± 0.23.
In the case of V13A, the abundance fitness is reported as -0.266 ± 0.036.
With V13P the abundance fitness was -0.764 ± 0.14.
V13M showed an abundance fitness of 0.05 ± 0.032.
For V13K, the abundance fitness was -0.032 ± 0.045.
Q4S gave an abundance fitness of -0.024 ± 0.043.
In the case of Q4E, the abundance fitness is reported as 0.12 ± 0.077.
Q4F showed an abundance fitness of 0.067 ± 0.074.
Variant Q4T has an abundance fitness of -0.242 ± 0.075.
Q4Y showed an abundance fitness of -0.016 ± 0.083.
Q4I gave an abundance fitness of -0.335 ± 0.084.
For Q4A, the abundance fitness was -0.146 ± 0.048.
Work on Q4H yielded an abundance fitness of -0.172 ± 0.059.
In the case of Q4K, the abundance fitness is reported as 0.127 ± 0.067.
In the case of Q4G, the abundance fitness is reported as -0.09 ± 0.045.
Work on Q4W yielded an abundance fitness of -0.298 ± 0.078.
With Q4D the abundance fitness was -0.285 ± 0.11.
Variant Q4M has an abundance fitness of -0.387 ± 0.084.
In the case of Q4L, the abundance fitness is reported as -0.062 ± 0.051.
For Q4R, the abundance fitness was -0.002 ± 0.042.
In the case of Q4P, the abundance fitness is reported as -0.116 ± 0.042.
Q4C showed an abundance fitness of 0.012 ± 0.057.
In the case of Q4N, the abundance fitness is reported as -0.092 ± 0.059.
Work on E3V yielded an abundance fitness of -0.162 ± 0.057.
Variant E3W has an abundance fitness of -0.35 ± 0.089.
Work on E3N yielded an abundance fitness of 0.097 ± 0.083.
E3G showed an abundance fitness of -0.044 ± 0.041.
Variant E3M has an abundance fitness of -0.073 ± 0.071.
For E3D, the abundance fitness was -0.455 ± 0.11.
In the case of E3Q, the abundance fitness is reported as 0.098 ± 0.066.
Variant E3L has an abundance fitness of -0.421 ± 0.1.
In the case of E3Y, the abundance fitness is reported as -0.07 ± 0.092.
With E3K the abundance fitness was -0.096 ± 0.074.
With E3A the abundance fitness was -0.251 ± 0.057.
In the case of E3F, the abundance fitness is reported as -0.109 ± 0.098.
Variant E3R has an abundance fitness of -0.366 ± 0.044.
For E3T, the abundance fitness was -0.029 ± 0.042.
With E3I the abundance fitness was -0.15 ± 0.11.
Work on E3C yielded an abundance fitness of -0.141 ± 0.078.
With G5W the abundance fitness was -0.105 ± 0.057.
G5K showed an abundance fitness of 0.015 ± 0.042.
With G5F the abundance fitness was -0.158 ± 0.064.
Work on G5P yielded an abundance fitness of -0.26 ± 0.055.
With G5I the abundance fitness was -0.219 ± 0.052.
With G5E the abundance fitness was -0.141 ± 0.076.
Work on G5M yielded an abundance fitness of -0.175 ± 0.066.
Work on G5H yielded an abundance fitness of -0.313 ± 0.095.
Work on G5V yielded an abundance fitness of -0.171 ± 0.053.
G5A gave an abundance fitness of -0.064 ± 0.054.
G5S showed an abundance fitness of -0.068 ± 0.042.
Work on G5N yielded an abundance fitness of 0.031 ± 0.05.
In the case of G5R, the abundance fitness is reported as -0.123 ± 0.037.
Variant G5Y has an abundance fitness of 0.008 ± 0.056.
Work on G5L yielded an abundance fitness of -0.217 ± 0.044.
Variant G5Q has an abundance fitness of -0.299 ± 0.089.
G5C showed an abundance fitness of -0.21 ± 0.043.
In the case of P8W, the abundance fitness is reported as -0.856 ± 0.15.
Variant P8C has an abundance fitness of -0.969 ± 0.3.
With P8R the abundance fitness was -0.648 ± 0.057.
Work on P8N yielded an abundance fitness of -0.611 ± 0.063.
P8L gave an abundance fitness of -0.988 ± 0.23.
With P8F the abundance fitness was -0.341 ± 0.38.
P8H showed an abundance fitness of 0.162 ± 0.13.
P8T gave an abundance fitness of -0.432 ± 0.12.
In the case of P8K, the abundance fitness is reported as 0.223 ± 0.15.
Variant P8V has an abundance fitness of -0.96 ± 0.16.
Work on P8G yielded an abundance fitness of -0.625 ± 0.067.
With P8M the abundance fitness was -0.692 ± 0.3.
Work on P8I yielded an abundance fitness of -0.623 ± 0.23.
Variant P8D has an abundance fitness of -0.626 ± 0.088.
In the case of P8A, the abundance fitness is reported as -0.766 ± 0.26.
For P8E, the abundance fitness was -0.594 ± 0.18.
With P8Q the abundance fitness was -0.814 ± 0.25.

From the Human Domainome abundance scans (Beltran et al. 2025)
